Reference: patent publication US20040235717

Legend:
mtAR S210A = mtAR S210A (UniProt P10275)
mtAR S790A = mtAR S790A (UniProt P10275)
mtAR S790A, sequence (P10275 whole entry, looked up, stated change not applied): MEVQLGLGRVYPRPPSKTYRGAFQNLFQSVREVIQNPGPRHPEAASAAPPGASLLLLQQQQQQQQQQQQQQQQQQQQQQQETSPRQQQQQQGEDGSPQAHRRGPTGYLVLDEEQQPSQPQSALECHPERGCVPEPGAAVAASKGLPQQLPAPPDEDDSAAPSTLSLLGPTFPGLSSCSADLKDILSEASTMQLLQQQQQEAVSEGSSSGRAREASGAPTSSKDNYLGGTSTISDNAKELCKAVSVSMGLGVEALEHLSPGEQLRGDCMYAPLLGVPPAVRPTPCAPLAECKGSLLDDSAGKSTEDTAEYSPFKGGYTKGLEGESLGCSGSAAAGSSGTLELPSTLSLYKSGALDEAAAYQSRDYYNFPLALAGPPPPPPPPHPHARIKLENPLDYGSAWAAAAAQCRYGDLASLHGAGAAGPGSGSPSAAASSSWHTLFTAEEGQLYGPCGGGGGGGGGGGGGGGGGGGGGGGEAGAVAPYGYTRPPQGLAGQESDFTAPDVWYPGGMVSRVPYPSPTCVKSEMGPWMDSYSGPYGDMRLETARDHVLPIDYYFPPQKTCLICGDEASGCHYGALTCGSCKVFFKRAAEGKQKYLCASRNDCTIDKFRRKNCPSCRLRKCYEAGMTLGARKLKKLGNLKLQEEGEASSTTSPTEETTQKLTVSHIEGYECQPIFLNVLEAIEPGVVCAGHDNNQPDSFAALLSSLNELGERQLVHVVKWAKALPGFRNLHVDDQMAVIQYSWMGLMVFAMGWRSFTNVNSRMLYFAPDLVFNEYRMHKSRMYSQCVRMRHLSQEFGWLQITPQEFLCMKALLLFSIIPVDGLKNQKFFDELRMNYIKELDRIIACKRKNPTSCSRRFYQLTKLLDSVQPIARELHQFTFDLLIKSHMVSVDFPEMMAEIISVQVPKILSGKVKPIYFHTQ

mtAR S210A, sequence (P10275 whole entry, looked up, stated change not applied): as above

Substance: Akt/PKB (endogenous, LNCaP cells)
- in vitro phosphorylation of immunoprecipitated AR by Akt (mtAR S210A): the degree of Akt phosphorylation of mtARS210A and mtARS790A, as compared to wtAR, was reduced significantly
- in vitro phosphorylation of immunoprecipitated AR by Akt/PKB (mtAR S210A): the degree of phosphorylation of ARS210A and ARS790A by Akt/PKB, as compared to wtAR, was reduced significantly
- in vitro phosphorylation of immunoprecipitated AR by Akt (mtAR S790A): the degree of Akt phosphorylation of mtARS210A and mtARS790A, as compared to wtAR, was reduced significantly
- in vitro phosphorylation of immunoprecipitated AR by Akt/PKB (mtAR S790A): the degree of phosphorylation of ARS210A and ARS790A by Akt/PKB, as compared to wtAR, was reduced significantly
